Laboratory results as given in publication PMC12561412, “Aptamer‐Mediated Artificial Synapses for Neuromorphic Modulation of Inflammatory Signaling via Organic Electrochemical Transistor”.

Columns and labels:
interleukin-6 (IL-6) = interleukin-6 (IL-6) (UniProt P05231 30-212); assay: organic electrochemical transistor, aptamer on Au gate; PBS; linear response 0.5 pM to 50 nM; also in ALB and serum; SPR: PBS-P+ pH 7.4, 5% DMSO, CM5 chip, 30 uL/min, 60 s injections, temperature not stated; OECT: PBS 1x pH 7.4 (also albumin, serum), VDS 0.1 V; details: protein: commercial
interleukin-6 (IL-6), sequence (P05231 30-212): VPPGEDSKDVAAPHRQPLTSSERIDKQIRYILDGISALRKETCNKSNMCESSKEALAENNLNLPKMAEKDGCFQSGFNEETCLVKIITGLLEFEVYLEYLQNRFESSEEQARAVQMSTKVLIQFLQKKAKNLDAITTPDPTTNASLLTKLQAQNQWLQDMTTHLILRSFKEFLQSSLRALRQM

interleukin-11 (IL-11) = target: T1, interleukin-11 (IL-11) (UniProt P20809 22-199); assay: organic electrochemical transistor, aptamer on Au gate; no noticeable current change; SPR: PBS-P+ pH 7.4, 5% DMSO, CM5 chip, 30 uL/min, 60 s injections, temperature not stated; OECT: PBS 1x pH 7.4 (also albumin, serum), VDS 0.1 V; details: protein: commercial
T1 sequence: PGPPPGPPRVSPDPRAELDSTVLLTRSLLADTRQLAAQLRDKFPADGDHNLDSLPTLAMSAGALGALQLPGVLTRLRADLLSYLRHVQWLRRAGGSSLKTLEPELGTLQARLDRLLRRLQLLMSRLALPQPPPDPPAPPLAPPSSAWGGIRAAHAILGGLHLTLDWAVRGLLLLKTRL

interferon-gamma (IFN-γ) = interferon-gamma (IFN-γ) (UniProt P01579 24-161); assay: as above; details: protein: commercial; chain copies: 2
interferon-gamma (IFN-γ), sequence (P01579 24-161): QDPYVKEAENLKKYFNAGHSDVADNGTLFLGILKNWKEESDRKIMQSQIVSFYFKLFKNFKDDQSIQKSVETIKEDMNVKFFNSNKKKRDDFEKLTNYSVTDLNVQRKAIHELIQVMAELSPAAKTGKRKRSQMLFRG

Question: Does GGTGGCAGGAGGACTATTTATTTGCTTTTCT (ssDNA, 5' C6 thiol, immobilized on gold via Au-S) [IL-6 aptamer, thiolated, on Au gate] bind (interleukin-6 (IL-6))?
Answer: Result: binds

Question: Does GGTGGCAGGAGGACTATTTATTTGCTTTTCT (ssDNA, 5' C6 thiol, immobilized on gold via Au-S) [IL-6 aptamer, thiolated, on Au gate] bind (interleukin-11 (IL-11))?
Answer: Result: no binding

Question: Does GGTGGCAGGAGGACTATTTATTTGCTTTTCT (ssDNA, 5' C6 thiol, immobilized on gold via Au-S) [IL-6 aptamer, thiolated, on Au gate] bind (interferon-gamma (IFN-γ))?
Answer: Result: no binding
